For the assay, the target named is membrane type 1-matrix metalloproteinase (MT1-MMP), P50281. Description: not stated at the place; fluorescence polarization with MT1-MMP hemopexin domain per Examples 7-8. (In general: Polarisation of emitted light reports the rotation of a fluorescent probe.)

*1 amine or outer side, *2 acyl side, *3 side chain or, on linkers, in order; H or OH if unused. Bridges are numbered along the chain shown (N, C = ends). [ ]: non-standard residue; d: D form. The star is where a group is joined. DOTA = O=C(O)CN1CCN(CC(=O)O)CCN(CC(=O)*)CCN(CC(=O)O)CC1; 1Nal = N[C@@H](Cc1cccc2ccccc12)C(=O)O; TBMB = c1c(C[*:1])cc(C[*:3])cc1C[*:2]; Tle = CC(C)(C)[C@H](N)C(=O)O

A word on the Kd: it is the concentration at which binding is half-saturated. The low end stands for tighter binding, the high end for weaker binding.

B1: I-23 (peptide)
peptide: {DOTA}-AC[dA]NE[1Nal][dA]CEDFYD[Tle]C-NH2
modifications: linker 2-8-15 via TBMB
SMILES: C[C@H](NC(=O)CN1CCN(CC(=O)O)CCN(CC(=O)O)CCN(CC(=O)O)CC1)C(=O)N[C@H]1CSCc2cc3cc(c2)CSC[C@H](NC(=O)[C@@H](C)NC(=O)[C@H](Cc2cccc4ccccc24)NC(=O)[C@H](CCC(=O)O)NC(=O)[C@H](CC(N)=O)NC(=O)[C@@H](C)NC1=O)C(=O)N[C@@H](CCC(=O)O)C(=O)N[C@@H](CC(=O)O)C(=O)N[C@@H](Cc1ccccc1)C(=O)N[C@@H](Cc1ccc(O)cc1)C(=O)N[C@@H](CC(=O)O)C(=O)N[C@@H](C(C)(C)C)C(=O)N[C@H](C(N)=O)CSC3
Consider B1, for which the equilibrium dissociation constant (Kd) is 0.52 nM.

(Values after patent US12552837.)
